Experiment: soluble on expression in E. coli; label from the status in PepcDB or PDB records

Soluble on expression in E. coli, not soluble:
MGSDKIHHHHHHMPTITAKIQIHVSDNQAESLKITTNAYRKACNWLSKHIFETKNLNQVNLNNLYYSDLRNQFRLKSQMAQSVMKTVIARYKSAKSNGHEWSLIDFKLAEYDLVWNRDYSLTKNQFSVNTLEGRLKLNYERKAMKKYFNSTWKFGTAKLVHKYKKWFLHIPMTKEYQTLDFADVNNIVGVDLGINFLATTYDSQSKTTFYNGNIVKHKRGKFKATRKQLQTRQTPSSRKKIKQIGSRENRYVTDVNHQITKALVEAYPRGTMFVLEDLTGVRSATEKVRVKNRYVSVSWAFYQFRQMLEYKAELNGQKVIVVDPKYTSQTCPKCGNIEKANRNKKLHTFKCKNCQYQSNDDRISAMNLHRKGIKHISVVTTGV
MGSDKIHHHHHHMPTLPAYPLFREHSLLYLAHMGISKLKPSNSATTLLQLAREVLAIEAREVQALAGRLDQSFVNAVELILQCRGRVVVTGIGKSGHIGNKIAATLASTGTPAFFMHPAEASHGDLGMITRDDVVIALSNSGEADELLALLPPLKRIGTPIISISGNRHSTLSKAADIFLDAHVSQEACPLGLAPTASTTAALALGDALAVTLLDQRGFSREDFALAHPGGSIGRRLLLHVQDVMRSGDDIPAVSVSSSLKDGLLEMSRKGLGMTAVLDAADKPVGIFTDGDLRRAFEAGIDINGTRMADVMHAHPRSILPGQLAVDALALMEQYSISSLLVVDQQGNLVGALNMHDLLMAKVV
MGSDKIHHHHHHMPTVHDLDTPSILIDAARAEANIARAQAHADKNGLKLRPHIKTHKLPYWAKKQVAAGAVGITCQKIGEAEVMTDAGLSDIFLPYNILGRAKLQRLKTLHGRVTLSVTSDSMETLEGLAATFTDAGHPLQVLVECDTGMGRCGVQTADQAVALARLIDKAGGLTFGGLMTYPAAGRAAEAEAWLANAKQALAASGLACERISSGGTPDMWRSGEDSVVTEYRPGTYIYLDRYQVAKGVGTLDDCALTVLATVVSHPTATRAILDSGSKALSSDTLGLKDFGELLGAPDARVTGLSEEHGTVTLSGDAKLRIGERVRVVPDHCCVVTNLFNEVNLIDGETVLETLPVAARGKMG
MGSDKIHHHHHHMPYAVTLPEFTGPLDLLLRLIERAELDITTIALASVADQYLAHVRTLEEVEPRELAEFVSMAARLILIKSRALLPRSPTTPAEAGDEDAGQLVAQLELYRRFKQAAEVLRRWQDQGRSTFVRLAPPPLLPAPAPISYRITDLLHALERRRQLQLPLAQPEPIVLAPRLTVAEVAERIRARLERTAWFDFTDLLSNDPTTEEVIVSFWAMLELLKRRAIVVEQTMLFGPILIGRGTAPIVTEPADEDEL
MGSDKIHHHHHHMQAKTTLEQWEILQAVIDLGGYTQAANVLHRSQSSVSYQLSLLQERLGIELLTIHGRKAELTPEGENLLAQARSVIRSFHALEARAHSLKMGEQASINLVVDSTFPKDRLFHLLSTFQKQHPATRIHLTEVLRNETSAQLKARDADIYIITQREIDGCAGRWLMNVDFVAVAHSHHPLFSLPTPLSHEALSRYPCVEIVMRTPPHSQPASAESWTFTTFEAATQAVLHQVGYGWLPEARISEHITRGELHILPLQQGERRTTPLYLLAEEKGQPLGKEIIMLIELLFGRL
MGSDKIHHHHHHMQDLVQAYKEEKNARIKERILAVKLHVVDGKSEKEVSKMLNKGYSTIKLWIGKYKKEGLDGLKDKPRSGRPRKVEEEKIKQILEDKPQKYGIQQEYWTMKTLKIALQEQGIEYKKSRLYELVHELGYNLVKPRPTNIQAEKDKWEDFKKIKKLERKALFFLDECRTVISTSIKKVLAKVGSKPVMRVNIGFSSIYVILAINAWTGEVVVSLAKRPNSESVKYFLRYFKRRVGSGRVYMVMDNYSPHKTKGTLEVCRRKGIHPVFTPPYSPELNMAEAVFKSLKNYMSNKIFYTIEDVKNCIKQFFEENKYRFNLNAITYLGLDKIEV
MGSDKIHHHHHHMQDSMYSALFGALTNEHRLNNIANNLANVNTTGYKRDVLAFKDTFLSFAHDEVMEPIPNVRSKKMFPEPIHIAKPRIALAKTDFSQGSLKLTGGTLDMAVHGDGFFKVRTPDGEFYTRNGNFRQTSDGQLVTQQGWPVLGAGGDIQIPPRANLTVAENGTIYADGEEIGQVQVVTLDNLDALEKQGSNLFRLREGAEAQEVPVENPVVLQGFLETANVEVVTEMVNMIEANRQFEAYQKIMQTTDAVDKMATTQVGRGRA

Reference: the DeepSol protein solubility set
